# Reference: paper doi:10.1101/679134
# pKd: −log10 of the molar value.
# Test system: CsrA-2 (rCsrA-2) (Coxiella burnetii)
# Experiment: EMSA
# Conditions: 30 min 37 C, pH not stated
substance,measurement,value
CbsR12,pKd,6.89
